Data as given in the nanobody polyreactivity screen of Harvey et al. (2022).

Experiment: yeast display, Sf9 membrane polyspecificity reagent, FACS + sequencing; frameworks hold sequencing errors
How it was run: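 A synthetic nanobody library was expressed on Saccharomyces cerevisiae BJ5465 by galactose induction for 36–48 hours. The library was stained for 1 hour at 4 °C with 10% biotinylated, detergent-solubilized Sf9 membrane reagent and enriched with streptavidin microbeads before FACS. Low and high (top ~1%) gates were set on anti-HA fluorescence for expression and streptavidin fluorescence for reagent binding, and each polyreactivity label reflects the gate of origin.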

Sequence	polyreactivity (PSR sort gate)
QVHLVDSGGGLVQAGGSLRLSCAASGSTIKTYTKGWYRQAPGKERELVAGITSGVSTSYADSVKGRFTISRDNAKNTVYLQMNSLKPEDTAVYYCNADAYLVIYFYTVRDYGYDYWGQGTQVTVSS	low polyreactivity
QVQLVESGGGLVQAGGSLRLSCAASGLIFYYYAMGGYRQAPGTQRELVACITGGDSTNYADSVKGRFTISRDNAKNTVYLQMNSLKPEDTAVYYCAAEFYGSSFGYRTYDYYYWGQGTEVTVSS	low polyreactivity
QVQLVESGGCLVQAGGSLRLSCAASGRTFSLYAMGWYRQEPGQERELVASITDSTGGSTYYADSVKGRFTLSRDNAKNTVYLQMNSLKPEDTAVYYCAAQDYQYSDYQWWFGYWGLGTQVTVSS	low polyreactivity
QVQLVESGGGLVQAGGSLRLSCAASGYIFGRNAMGWYRQAPGKERELVAVISSRGSRTYYADSVKGRFTISRDNAKNTVYLQMNSLKPEDTAVYYCAVRGVVNFDYWGQGTQVTVSS	high polyreactivity
QVQLVESGGGLVQAGGSLRLSCAASGSILYYYAMGWYRQAPGKERELVAAITRSGGSTYYADSVKGRITISRDNAKNTVYLQMNSLKPEDTAVYYCAKDAHAYRDLDYWGQGTQVTVSS	low polyreactivity
QVQLVESGGGLVQAGGSLRLSCAASGLTFSWNAMGWYRQAPGKERELVAAISSRGGSTYYADSVKGRFKISRDNAKNTVYLQMNSLKPEDTAVYYCNAHGRRFLGDYGYWGQGTQVTVSS	low polyreactivity
QVQLVESGGGLVQAGGSLRLSCAASGSIFWSYAMGWYRQATGKERELVAAITWSGGNTYADSVKGRFTISRDNAKNTVYLQMNSLKPEDTAVYYCAADPAHGTKWYVYPSHDDYWGQGTQVTVSS	low polyreactivity
QVQHVESAGGLVQAGGILRLSCHASGFTIHAYVLGWYRQAPGKERELVAAISSGGSTYYADSVKGRFTISRDNAKNTGYLQMNSLKPEATSVYYCAAAYPYYWHLDFWGQGSQVTVSS	low polyreactivity
QVQLVESGGGLVQAGGSLRLSCAASGSIFYYNAMGWYRQAPGKERELVAAISWSGGSTYYADSVKGRFTISRDKAKNTVYLQMNSLKPEDTAVYYCNAVGWYTYFYGSRKYNSWGQGTQVTVSS	low polyreactivity
QVQLVESGGGLVQAGGSLRLSCAASGFIFSKYAMGWYRQAPGKERELVAAISTSGASTYYADSVKGRFTISRDNAKNTVYLQMNSLKPEDTAVYYCNVPRYSPIRNYDYWGQGTQVTVSS	high polyreactivity
QVQLVESGGGLVQAGGSLRLSCAASGSILGTYAMGWYRQAPGKERELVAAISSSGRTSYADSVKGRFTISRDNAKNTVYLQMNSLKPEDTAVYYCNASNYIVLINDPDAAPWLYDYWGQGTQVTVSS	low polyreactivity
QVQLVESGGGLVQAGGSLRLSCAASGSIYGTNAMGWYRKAPGKEREFVASITWGGGTYYADSVKGRFTISRDNAKNTVYFQMNSLKQEDSAVYYCATERVYTVYYDYDSWGQGTQVTVSS	low polyreactivity
QVQLVESGGGLVQAGGSLRLSCAASGRIFVDYAMGWYRQAPGKERELVAAITRSGDRTYYADSVKGRFTISRDNAKNTVYLQMNSLKPEDTAVYYCATDYPGYDWGQGTQVTVSS	low polyreactivity
QVQLVESGGGLVQAGGSLRLSCAASGRIFKRNAMGGYRQAPGKDREVVADMSYGHSTYADSVKGRFTISRDNAKKTVYLQMNSLKPEDTAFYYCAKLYWIRTYDYWGQGTQVSVSS	low polyreactivity
QVQLVESGGGLVQAGGSLRLSCAASGRTFVYNAMGWYRQAPGKERELVAAISSDGASTYYADSVKGRFTISRDNAKNTVYLQMNSLKPEDTAVYYCAADLLVSWWLDYDYWGQGTQVTVSS	low polyreactivity
QVQLVESGGGLVQAGGSLRLSCAASGGTFGSYAMGWYRQAPGKERELVAAIRSGDRTYYADSVKGRFTISRDNAKNTVYLQMNSLKPEDTAVYYCAKLRYPYLFWDDSEYWGQGTQVTVSS	low polyreactivity
QVQLVESGGGLVQAGGSLRLSGAASGRTFVSYTMGWYRQAPGKERQLVAAISDDGDSTYYADSVKGRFTISRDYAKNTVYLQMNSLKPEDTAVYYCAAGEYQYFWFPFDYWGQGTQVTVSS	low polyreactivity
QVQLVESRGGLVQAGGSHRLSCADAGYSNIANAMGSDRQAPGKERELVAAISIGGNTKYADSVKGRFTISRDNAKNTVYLQMNSLKPEDTAVYYCAVEDQYYSVSLGGEYDYWGQGTQVTVSS	high polyreactivity
QVQLVESGGGLVQAGGSLRLSCAASGSTFDQNGMGWYRQAPGKERELVATISTSAGTYYADSVKGRFTISRDNAKNTVYLQMNSLKPEDTAVYYCNADLGGQYKEFDYWGQGTQVTVSS	low polyreactivity
QVQLVESGGGLVQAGGSLRLSCAASGSIFTVNAMGWYRQAPGKERELVAAISSGGSTHYADSVKGRFTISRDNAKNTVYLQMNSLKPEDTAVYYCAAVYVPYYGYSTRYDYWGQGTQVTVSS	low polyreactivity
QVQLVESGGCLVQAGGSLRLSCAASGRIFPGYAMGWYRQAPGKESEFVAAITASGGTTYYADSVKGRFTISRDNAKNTVYLQMNCLKPEDTAVYYCAKYRYTVAGYNYWGQGTQVTVSS	high polyreactivity
QVHLVESGGGLVKAGGSLRLSCAASGRTFAQYVMGWYRQAPGKERELVAAITWSGGSSYYADSVKGRFTISRDNAKNTVYLQMNSLKPEDTALYYCAVKGAGGPKDDYWGQGTQVTVSS	high polyreactivity

Sequence	polyreactivity (PSR sort gate)
QVQLVESGGGLVQAGGSLRLSCAASGSTFRYYAMGWYRPAPGKERELVAAINSSGGSTYYADSVKGRFTISRDNAKNTVYLQMNSLKPEDTAVYYCATVYAYTGWLTNPREYSRYDYWGQGTQVTVSS	low polyreactivity
QVQLVESGGGLVQAGGSLRLSCAASGSTFAQNTKGWYRQAPGKERELVATISDGGGSTYYADSVKGRFTISRDNAKNTVYLQMNSLKPEDTAVYYCNTDRFWPSDYWGQGTQVTVSS	low polyreactivity
QVQLVESGGGIVQAGGSLRLSFAASGSTFAGYAMGLYREAPGKERELVATFTYSGGSTYYADSVKGRFSISRDNAKNTVYLQMNSLKPEDTAVYYCAKNASYLWGYEYWGQGTQVTVSS	low polyreactivity
QVQLVESGGGLVQAGGSLRLSCAAYGFIFKKYAMGWYRQAPGKERELVAAISGSSTRTYYADSVKGRFTISRDNAKKTVYLQMHSLKPEDTAVYYCVGRFYERDYWGQGTQVTVSS	high polyreactivity
QVQLVESGGGLVQAGGSLRISCAASGTNNRTYAMGWYRQSTGKERDLVAAISKRGGSTYYADSVKGRFTISRDKAKNTVYLQMNSLKPEDTEVYYCAKKSTPGYGTSNDSWVQGTQVTVSS	high polyreactivity
QVQLVESGGGLVQAGGSLRLSCAASGSTFPYNTMGWYRQAPGKERDFVAAITGDGGTTYYADSVKGRFTISRDNAQNTVYLQMNSLKQEDTAVYYCAVPYPAEGYGGDYWGQGSQVTVSS	low polyreactivity
QVQLVESRGGLVQAGGSLRLSCDASGFIFTLYAMGWYRQAPGKERELVASIRGSGGNTYYADSVKGRFTISRDNAKNTVYLQMNSLKPEDTAVYYCAARTYRRPYSSWGQGTQVTVSS	high polyreactivity
QVQLVESGGGLVQAGGSLRLSCAASGRIFVVYVMGWYRQATGKEREFVAAITWGGGNTYYADSVKGRFTISRDNAKNTVYLQMNSLKPEDTAVYYCAAAPRKYVWMDYWGQGTQVTVSS	low polyreactivity
QVQLVESGGGLVQAGGSLRLICAASGFTFYLYTMGWYRQAPGKERELVAAISWRGGGTYYADSVKGRFTISRDNAKNTVYLQMNSLKPEDTEVYYCAAYWRRRLVYYYWGQGTQVTVSS	high polyreactivity
QVQLVESGGGLVQAGGSLRLSCAASGSIFGLYAMGCYRQAPGKERELVAAITWSSGNTYYADSVKGRFTISRDNAKNTVYLQMNSLKPEDTAVYYCAAEQIYFVYWEDDYWGQGTQVTVSS	high polyreactivity
QVQLVESGGGLVQEGGSLRLSCAASGSTFPGNAMGWYRQAPGKERELVAAIRDRGTSTYYADSVKGRFTISRDNAKNTVYLQMNSLKPEDTAVYYCAAASRVAKGRWRLYDYWGQGTQVTVSS	high polyreactivity
QVQLVESGGGLVQAGGSLRLSCAASGFTIIRYAMGWYRPAPGKERELVATITRRGGSTYYADSVKGRFTISRDNAKNTVYLQMNSLKPEDTAVYYCAARIRPLYANVRYGYWGQGTQVTVSS	high polyreactivity
QVQLVESGGGLVQAGGSLRLSSAASGFIFNTNAMGWYRQAPGKERELVAAISGGGSTYYAVSVKGRFTLSRDNAKQTVYLQMNSLKPDDTAVYYCAAVPFYRYDYWGQGTQVTVSS	low polyreactivity
QVQLVESGGGLVQAGGSLRLSCAASGSTFSDYAMGWYRQEPGKERELVAAISSDGSTYYADSVKGRYTISRDNAKNTVYLQMNSLKPEDTAVYYCAKDVILVWPYATGRDFWGQGTQVTVSS	low polyreactivity
QVQLVESGGGLVQAGGSLRLSCAASGRIFPRNAMGWYRQAPGKERELVAAISSGGGGTYYADSVKGRFTISRDNAKNTVYLQMNSLKPEDTAVYYCNAAYTYVTAWYYYWGQGTQVTVSS	high polyreactivity
QVQLVESGGGLVQAGGSLRLSCAASGSTFHRKAMGWYRQAPGKERELVASISIGGSTNYADSVKGRFTISRDNAKNTVYLQMNSLKPEDTAVYYCATEPNPRRPRVDYDYWGQGTQVTVSS	low polyreactivity
QVQLVESGGGLVQAGGSLRLSCAASGSIISGYAMGLDRQARGKERDLVAAISSGGRTKYADSVKGRFTISRDNAKNTVYLQMNSLKPEDTAVYYCNVSYLVYRWIFGWSLDYWGQGTQVTVSS	low polyreactivity
QVQLVESGGGLVQAGGRLLLSCAASGSTFDAYAMGWYRQAPGKERELVAAITNGGSTYYADSVKGRFTISRDNAKNTVYFQMNCLKPEDTAVYYCNAQHRTVWGIFGRFNYWGLGTQVTVSS	low polyreactivity
QVQLVESGGGLVQAGGSLRLSCAASGRIFVSHAMGWYRQAPGKERALVAGITWTSGSTYYADSVKGRFTISRDNAKNTVYLQMKSLKPEDTAVYYCAAEYWYGNAFDYWGLGTQVTVSS	low polyreactivity
QVQLVESGGGLVQAGGSLRLSCAASGFIFRWYAMGWSRQAPGKERELVAAISRGGSTNYADSVKGRFTISRDNAKNTVYLQMISLKPEDTAVYYCNARYVSYSGRYVIGQYVKYDYWGQGTQVTVSS	high polyreactivity
QVKLVESGGGLVQAGGSLSLSFAYSGITFYGNAMGWYRQAAGTERELVAAITGGGGTNYADSLKGRFTISRDNEKNTVYLQMNSLKPEDTAVYYCNRDYFVWFQRGQYKRGSSWYDYWGQGTQVTVSS	low polyreactivity
